Measured values from PMC8217354.

Target: T1, N-SpTad2 (Schizosaccharomyces pombe, UniProt O94642 1-202)
T1 sequence: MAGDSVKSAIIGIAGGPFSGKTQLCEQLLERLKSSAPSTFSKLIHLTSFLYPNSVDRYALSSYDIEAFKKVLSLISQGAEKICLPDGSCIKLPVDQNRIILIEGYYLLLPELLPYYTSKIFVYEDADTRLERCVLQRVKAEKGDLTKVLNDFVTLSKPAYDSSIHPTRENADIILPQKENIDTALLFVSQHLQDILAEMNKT
Test: EMSA

B1: tRNAAla (structured_RNA)
RNA: GGGCGUGUGGCGUAGUCGGUAGCGCGCUCCCUUAGCAUGGGAGAGGUCUCCGGUUCGAUUCCGGACUCGUCCACC
B1: no binding.
